The target of experiment [1] is T1, human IL-36R-Fc (human, UniProt Q9HB29 20-335, limits assumed).
T1 construct: Bought reagent
T1 sequence (looked up): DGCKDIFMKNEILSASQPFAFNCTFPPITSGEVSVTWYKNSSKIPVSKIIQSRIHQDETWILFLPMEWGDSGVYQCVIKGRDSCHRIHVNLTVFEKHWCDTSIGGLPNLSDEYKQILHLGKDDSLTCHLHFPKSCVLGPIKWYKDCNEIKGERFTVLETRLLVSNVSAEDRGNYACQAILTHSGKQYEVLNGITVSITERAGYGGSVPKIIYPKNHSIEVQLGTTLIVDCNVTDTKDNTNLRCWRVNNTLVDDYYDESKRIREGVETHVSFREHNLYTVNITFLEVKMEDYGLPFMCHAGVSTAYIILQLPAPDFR
In words: MSD plate assay, IL-38 on plate-bound IL-36R-Fc, detected with biotinylated anti-IL-38 clone H127C. On the procedure:
(§1) Neutralization of human IL-38 binding to IL1RAPL1 or IL-36R. Human IL1RAPL1-Fc (Sino Biological, #10177-H02H) and human IL-36R-Fc (R&D Systems) were diluted in coating Buffer (50 mM Carbonate-Bicarbonate Buffer, pH 9.4) at final concentration of 0.5 μg/mL and coated on MSD high bind plates (MSD) for approximately two hours at RT. Recombinant human IL-38 (Adipogen) was diluted in assay Diluent (1% BSA, 0.1% Tween 20, in 1×PBS). For antibody testing, anti-IL-38 antibodies were pre-incubated with IL-38 for approximately one hour at RT. IL-38 or antibody-IL-38 mixture was transferred to pre-coated MSD plates and incubated for approximately two hours at RT. After washing, the MSD plate was incubated with biotinylated mouse anti-human IL-38 (clone H127C, Thermo Fisher) at final concentration of 100 ng/mL and Sulfo-Tag-Streptavidin (MSD) at final concentration of 100 ng/mL for 1 hour at RT. Binding of IL-38 to plate-bound IL1RAPL1-Fc or human IL-36R-Fc was detected using the Meso Sector S 600 plate reader. Data are plotted using GraphPad Prism version 9.0.1. Dose response curves were fitted with “[Inhibitor] vs. response—Variable slope (four parameters)” method.

Experiment [2] concerns the target T2, Human IL1RAPL1-Fc (human, UniProt Q9NZN1 19-357, limits assumed).
T2 construct: Bought reagent
T2 sequence (looked up): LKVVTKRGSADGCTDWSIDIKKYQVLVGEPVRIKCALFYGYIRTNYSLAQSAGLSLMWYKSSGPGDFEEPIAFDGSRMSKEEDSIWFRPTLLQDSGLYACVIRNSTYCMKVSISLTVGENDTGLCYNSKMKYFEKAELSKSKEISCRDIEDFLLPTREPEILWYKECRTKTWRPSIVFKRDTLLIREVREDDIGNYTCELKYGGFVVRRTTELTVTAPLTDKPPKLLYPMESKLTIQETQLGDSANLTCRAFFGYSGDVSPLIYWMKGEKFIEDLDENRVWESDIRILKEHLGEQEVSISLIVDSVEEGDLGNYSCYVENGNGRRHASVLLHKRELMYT
In words: MSD plate assay, IL-38 on plate-bound IL1RAPL1-Fc, detected with biotinylated anti-IL-38 clone H127C. As to the method: as §1

B1: human interleukin-38 (IL-38) (ligand, UniProt Q8WWZ1 1-152, looked up)
chain: MCSLPMARYYIIKYADQKALYTRDGQLLVGDPVADNCCAEKICILPNRGLARTKVPIFLGIQGGSRCLACVETEEGPSLQLEDVNIEELYKGGEEATRFTFFQSSSGSAFRLEAAAWPGWFLCGPAEPQQPVQLTKESEPSARTKFYFEQSW
notes: One entry is used for all sources of human IL-38; The Adipogen protein is called full length; also called IL1F10/IL38; IL1F10
Turning to B1, the binding result in experiment [1] and in experiment [2] was “binds” in each case.

The values above are taken from patent US20240174741A1 (IMMUNOME, published 2024).
